From article PMC7854179 (Molecules and Cells, 2021)

B1: HPV11 E7 CR3 (residues 45-98) (domain or fragment)
chain: AQPLTQHYQILTCCCGCDSNVRLVVECTDGDIRQLQDLLLGTLNIVCPICAPKP
B2: HPV1a E7 CR3 (residues 39-93) (domain or fragment)
chain: LVSPQQPYAVVASCAYCEKLVRLTVLADHSAIRQLEELLLRSLNIVCPLCTLQRQ
B3: HPV18 E7 conserved region 3 (residues 54-105), CR3_(18E7) (domain or fragment)
chain: AEPQRHTMLCMCCKCEARIKLVVESSADDLRAFQQLFLNTLSFVCPWCASQQ
B4: human PTPN21 PTP domain (residues 873-1174), PTP_(PTPN21) (domain or fragment)
chain: EVATRATNDERCKILEQRLEQGMVFTEYERILKKRLVDGECSTARLPENAERNRFQDVLPYDDVRVELVPTKENNTGYINASHIKVSVSGIEWDYIATQGPLQNTCQDFWQMVWEQGIAIIAMVTAEEEGGREKSFRYWPRLGSRHNTVTYGRFKITTRFRTDSGCYATTGLKMKHLLTGQERTVWHLQYTDWPEHGCPEDLKGFLSYLEEIQSVRRHTNSTSDPQSPNPPLLVHCSAGVGRTGVVILSEIMIACLEHNEVLDIPRVLDMLRQQRMMLVQTLCQYTFVYRVLIQFLKSSRLI
B5: HPV16 E7 CR3 (residues 45-98) (domain or fragment)
chain: AEPDRAHYNIVTFCCKCDSTLRLCVQSTHVDIRTLEDLLMGTLGIVCPICSQKP

How the values were obtained:
SEC-MALS = target: the molecule itself; experiment: SEC-MALS
[1] = target: B4; experiment: ITC
[2] = target: T1, human PTPN14 PTP domain (residues 886-1187), PTP_(PTPN14) (human, UniProt Q15678 886-1187); experiment: SAXS
T1 sequence: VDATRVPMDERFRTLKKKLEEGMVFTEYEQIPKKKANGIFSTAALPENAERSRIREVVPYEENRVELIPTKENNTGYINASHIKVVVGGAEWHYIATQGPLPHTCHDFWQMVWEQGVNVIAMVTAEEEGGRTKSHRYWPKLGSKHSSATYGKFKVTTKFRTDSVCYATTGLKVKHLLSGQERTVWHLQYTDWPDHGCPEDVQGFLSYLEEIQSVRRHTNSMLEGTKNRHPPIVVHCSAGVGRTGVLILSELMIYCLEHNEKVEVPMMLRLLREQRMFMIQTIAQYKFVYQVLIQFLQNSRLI

[3] = target: B1; experiment: SEC-MALS
[4] = target: B5; experiment: SEC-MALS
[5] = target: B2; experiment: SEC-MALS
[6] = target: B3; experiment: SEC-MALS
[7] = target: B3; experiment: SAXS

B1
stoichiometry N (SEC-MALS): 2

B2
stoichiometry N (SEC-MALS): 2

B3
stoichiometry N (SEC-MALS): 2 | Kd [1]: 5.43 nM | binding result [2]: binds

B4
stoichiometry N [3]: 1 PTP_(PTPN21) per E7 CR3 chain (2:2) | stoichiometry N [4]: 1 PTP_(PTPN21) per E7 CR3 chain (2:2) | stoichiometry N [5]: 1 PTP_(PTPN21) per E7 CR3 chain (2:2) | stoichiometry N [6]: 1 PTP_(PTPN21) per E7 CR3 chain (2:2) | stoichiometry N [7]: 1 PTP_(PTPN21) per CR3_(18E7) chain (2:2)

B5
stoichiometry N (SEC-MALS): 2
